The values that follow come from article PMC9891525 (PLOS Pathogens, 2023).

Sequences and labels used below:
B1: REGN10987 scFv combinatorial variant d1 displayed on HEK 293T cells (scFv, V domains shown)
VH: QVQLVESGGGVVQPGRSLRLSCAASGFTFSNYAMYWVRQAPGKGLEWVAVISYTGSNKYYADSVKGRFTISRDNSKNTLYLQMNSLRTEDTAVYYCASGSDYGDYLLVYWGQGTLVTVSS
VL: QSALTQPASVSGSPGQSITISCTGTSSDVGGYNYVSWYQQHPGKAPKLMIYDVSKRPSGVSNRFSGSKSGNTASLTISGLQSEDEADYYCNSLTSIYTWVFGGGTKLTVL
B2: REGN10987 scFv combinatorial variant A2 displayed on HEK 293T cells (scFv, V domains shown)
VH: QVQLVESGGGVVQPGRSLRLSCAASGFTFSNYAMYWVRQAPGKGLEWVAVISYDGSTKYYADSVKGRFTISRDNSKNTLYLQMNSLRTEDTAVYYCASGSDYGDYNLVYWGQGTLVTVSS
VL: QSALTQPASVSGSPGQSITISCTGTSSDVGGYNYVSWYQQHPGKAPKLMIYDVSKRPSGVSNRFSGSKSGNTASLTISGLQSEDEADYYCNSLTSISTWVFGGGTKLTVL
B3: REGN10987 scFv combinatorial variant d3 displayed on HEK 293T cells (scFv, V domains shown)
VH: QVQLVESGGGVVQPGRSLRLSCAASGFTFSNYAMYWVRQAPGKGLEWVAVISYTGSHKYYADSVKGRFTISRDNSKNTLYLQMNSLRTEDTAVYYCASGSDYGDYLLVYWGQGTLVTVSS
VL: QSALTQPASVSGSPGQSITISCTGTSSDVGGYNYVSWYQQHPGKAPKLMIYDVSKRPSGVSNRFSGSKSGNTASLTISGLQSEDEADYYCNSLTSIYTWVFGGGTKLTVL
B4: REGN10987 scFv combinatorial variant d8 displayed on HEK 293T cells (scFv, V domains shown)
VH: QVQLVESGGGVVQPGRSLRLSCAASGFTFSNYAMYWVRQAPGKGLEWVAVISYLGSNKYYADSVKGRFTISRDNSKNTLYLQMNSLRTEDTAVYYCASGSDYGDYLLVYWGQGTLVTVSS
VL: QSALTQPASVSGSPGQSITISCTGTSSDVGGYNYVSWYQQHPGKAPKLMIYDVSKRPSGVSNRFSGSKSGNTASLTISGLQSEDEADYYCNSLTSIYTWVFGGGTKLTVL
B5: REGN10987 scFv combinatorial variant d2 displayed on HEK 293T cells (scFv, V domains shown)
VH: QVQLVESGGGVVQPGRSLRLSCAASGFTFSNYAMYWVRQAPGKGLEWVAVISYDGSHKYYADSVKGRFTISRDNSKNTLYLQMNSLRTEDTAVYYCASGSDYGDYLLVYWGQGTLVTVSS
VL: QSALTQPASVSGSPGQSITISCTGTSSDVGGYNYVSWYQQHPGKAPKLMIYDVSKRPSGVSNRFSGSKSGNTASLTISGLQSEDEADYYCNSLTSIYTWVFGGGTKLTVL
B6: REGN10987 scFv combinatorial variant d6 displayed on HEK 293T cells (scFv, V domains shown)
VH: QVQLVESGGGVVQPGRSLRLSCAASGFTFSNYAMYWVRQAPGKGLEWVAVISYIGSNKYYADSVKGRFTISRDNSKNTLYLQMNSLRTEDTAVYYCASGSDYGDYLLVYWGQGTLVTVSS
VL: QSALTQPASVSGSPGQSITISCTGTSSDVGGYNYVSWYQQHPGKAPKLMIYDVSKRPSGVSNRFSGSKSGNTASLTISGLQSEDEADYYCNSLTSIYTWVFGGGTKLTVL
B7: REGN10987 scFv combinatorial variant A1 displayed on HEK 293T cells (scFv, V domains shown)
VH: QVQLVESGGGVVQPGRSLRLSCAASGFTFSNYAMYWVRQAPGKGLEWVAVISYDGSFKYYADSVKGRFTISRDNSKNTLYLQMNSLRTEDTAVYYCASGSDYGDYNLVYWGQGTLVTVSS
VL: QSALTQPASVSGSPGQSITISCTGTSSDVGGYNYVSWYQQHPGKAPKLMIYDVSKRPSGVSNRFSGSKSGNTASLTISGLQSEDEADYYCNSLTSISTWVFGGGTKLTVL

The target of this assay is biotinylated recombinant SARS-CoV-2 wild type spike RBD (SARS-CoV-2, wild type, UniProt P0DTC2, biotin (biotinylated; detected with streptavidin-FITC)). As to the kind of experiment: flow cytometry on cells. As to conditions: one partner purified.
Regarding B1, the binding result was “binds”.
As for B2, the binding result is listed as “binds”.
With B3 the entry was “binds”.
Consider B4, for which the binding result is listed as “binds”.
In the case of B5, the binding result was “binds”.
For the molecule B6, the binding result is “binds”.
With B7 the entry was “binds”.
